No end group written: not given here.
B1: αO-conotoxin GeXIVA14 (peptide)
peptide: TCRSSGRYCRSPYDRRRRYCRRITDACV
modifications: not fully specified; ends and bridges not checked
B2: αO-conotoxin GeXIVA13 (peptide)
peptide: TCRSSGRYCRSPYDRRRRYCRRITDACV
modifications: not fully specified; ends and bridges not checked

Legend:
Assay in all cases: cell-based or functional assay
[1] = target: rat NMDA receptor NR1-2b/NR2D (rat, UniProt P35439)
rat α7 nAChR = rat α7 nAChR (rat, UniProt Q05941)
[2] = target: rat NMDA receptor NR1-2b/NR2A (rat, UniProt P35439)

| Binder | Half-blocking dose IC50 of NMDA receptor current [1] [µM] | Half-blocking dose IC50 of ACh-gated current (rat α7 nAChR) [µM] | Half-blocking dose IC50 of NMDA receptor current [2] [µM] |
| --- | --- | --- | --- |
| B1 | ≥ 10 | – | – |
| B2 | ≥ 10 | 4.96 | > 10 |

— US9718864B2 (HAINAN UNIVERSITY, dated 2017)
